Data as given in patent US20210230599, “STEM-LOOP COMPOSITIONS AND METHODS FOR INHIBITING INTERLEUKIN-8” (VITRISA THERAPEUTICS, INC., published 2021).

Columns and labels:
[1] = biological target: T1, Interleukin-8 (IL8, CXCL8), C-terminal His-tagged (Homo sapiens, UniProt P10145 SEQ:1-72); assay: competition; competition TR-FRET; affinity within error of unpegylated parent; parent given as Aptamer 38 and as Aptamer 3; conditions: tags: C-terminal His (Sino Biological); stem-loop
Procedure: (§1) To better understand the sequence requirements and to confirm the stem structures of members of the Aptamer 3 family as determined from sequence covariation analysis from both the primary and secondary (degenerate) selections, a series of variants which included mutations and deletions to the predicted stems were synthesized and screened (Table 24). Activity of each of these variants were tested using a time resolved competition TR-FRET assay in which the labeled parent Aptamer 3 was competed with increasing concentrations of unlabeled variants for binding to IL8 (FIG. 14). Briefly, 2-fold dilutions of thermally equilibrated aptamers were made in TR-FRET Buffer (50 mM MOPS, pH 7.4, 125 mM NaCl, 5 mM KCl, 50 μM CHAPS, 0.1 mg/mL BSA, 1 mM CaCl₂, and 1 mM MgCl₂). 5 μL of aptamer or control solution was added to 5 μl mix of 10 nM C-terminal His-tagged-IL8, 60 nM ALEXA FLUOR® 647-labeled Aptamer, and 5 nM anti-His-Eu (Perkin Elmer) in a black wall low volume 384 well plate (Greiner). For control, 5 μl of 1000-fold excess of unlabeled parent aptamer or 5 μl TR-FRET buffer alone was added to the mix of ALEXA FLUOR® 647-labeled aptamer, His-IL8, and anti-His-Eu. The plate was covered with a plate seal and subsequently incubated in the dark for 1 hour at room temperature. The plate was read on a Biotek CYTATION™ 5 plate reader. […]

[2] = biological target: T1, Interleukin-8 (IL8, CXCL8), C-terminal …; assay: inhibition; inhibition of IL8 binding to CXCR1 cells, protein limited; neutrophil migration 2 nM; conditions: tags: C-terminal His (Sino Biological); stem-loop
Procedure: (§2) CXCR1 overexpressing cells were used to confirm that aptamers could block IL8 binding to its cognate receptor, CXCR1, in a functional setting. Briefly, CXCR1-overexpressing cells were plated in a 96 well plate and seeded overnight. Serially diluted aptamers and 5 nM IL8 were mixed in cell culture media and applied to cells for 2 hours at 37° C. Media was aspirated, and cells were washed 3× with PBS for 5 minutes. Cells were lysed in Ultra HiBlock Buffer (Perkin Elmer) with gentle agitation. IL8 levels were determined using Ultra TR-FRET (Perkin Elmer).

[3] = biological target: T1, Interleukin-8 (IL8, CXCL8), C-terminal …; assay: competition; competition TR-FRET; U13A; conditions: tags: C-terminal 6xHis (Sino Biological)
Procedure: as §1, with “Activity” for “To better understand the sequence requirements and to confirm the stem structures of members of the Aptamer 3 family as determined from sequence covariation analysis from both the primary and secondary (degenerate) selections, a series of variants which included mutations and deletions to the predicted stems were synthesized and screened (Table 24). Activity”
(§3) To better understand the sequence requirements and confirm the stem structures of members of the Aptamer 8 family as determined from sequence covariation analysis from both the primary and secondary (degenerate) selections, a series of variants which included mutations and deletions to the predicted stems (Tables 45 and 46) were synthesized and screened. […]

[4] = biological target: T1, Interleukin-8 (IL8, CXCL8), C-terminal …; assay: inhibition; inhibition of IL8 binding to CXCR1 cells, 5 nM IL8, protein limited; neutrophil migration 3 nM (Table 35); conditions: tags: C-terminal His (Sino Biological); stem-loop
Procedure: as §2

[5] = biological target: T1, Interleukin-8 (IL8, CXCL8), C-terminal …; assay: competition; competition TR-FRET; S1 disrupted; conditions: tags: C-terminal 6xHis (Sino Biological)
Procedure: as §1, with “Activity” for “To better understand the sequence requirements and to confirm the stem structures of members of the Aptamer 3 family as determined from sequence covariation analysis from both the primary and secondary (degenerate) selections, a series of variants which included mutations and deletions to the predicted stems were synthesized and screened (Table 24). Activity”
as §3

GAUGACGGUAGAUUACGGGUAGAGUGACCGCAUC (ssRNA, 2'-F G; 2'-OMe A,C,U; 5' 40 kDa PEG via C6NH2; 3' idT) [Aptamer P01]
binding result [1]: binds

GGCGACGGUAGAUUAUGGGCAGUGUGACCGCGCC (ssRNA, 2'-F G; 2'-OMe A,C,U; 5' C6NH2; 3' idT) [Aptamer 147]
IC50 [2]: 3 nM

CGGUGGGAAAAGUGAGAUGGGUUGCCG (ssRNA, 2'-F G, 2'-OMe A/C/U, 5' C6NH2, 3' idT) [Aptamer 61]
binding result [3]: binds

UGAUGACGGUAGAUUACGGGUAGAGUGACCGCAUCU (ssRNA, 2'-F G; 2'-OMe A,C,U; 5' C6NH2; 3' idT) [Aptamer 3]
IC50 [4]: 3 nM

CAAUGGGAAAUGUGAGAUGGGUUGCCG (ssRNA, 2'-F G, 2'-OMe A/C/U, 5' C6NH2, 3' idT) [Aptamer 214]
binding signal [5]: > 10 fold worse than Aptamer 8
